The record followed here is publication PMC8464830.

Assay in all cases: SPR
In general terms: SPR reads the build-up and loss of mass on a sensor chip optically.

Assay [1] addresses HIV-1 MA protein from clade B (LAI), full-length (HIV-1 clade B (LAI)).
Assay [2] concerns the target HIV-1 MA protein from clade B (NL4-3), full-length (HIV-1 clade B (NL4-3)).
Assay [3] addresses HIV-1 MA protein from clade D (94UG114.1), full-length (HIV-1 clade D (94UG114.1)).

“human Calmodulin-1 (from UniProt P0DP23 1-149) (natural protein)”: the Kd worked out at 49 µM in assay [1], 27.6 µM in assay [2] and 33.3 µM in assay [3].

What is called Kd is the free concentration of one partner at which half of the binding sites on the other are occupied at equilibrium, for simple one-to-one binding. High values mean a looser complex, low ones a tighter complex.
